Measured values as given in patent publication US20170183388A1 (REGENTS OF THE UNIVERSITY OF COLORADO A BODY CORPORATE, published 2017).
One block for each binder: values may come before it.

Tests used:
BioPure recombinant Aβ42 [1] = target: T1, BioPure recombinant Aβ42 (UniProt P05067 672-713); experiment: pull-down of whole brain synaptosome proteins on Aβ42 coupled to AminoLink resin, western blot [A]
T1 construct: domain: Aβ(1-42); Recombinant peptide from AmideBio, coupled to AminoLink resin or to SPR chips by EDC-NHS; For treating neurons the peptide came from R Peptide or AmideBio; also called Aβ(1-42); amyloid β

BioPure recombinant Aβ42 [2] = target: T1, BioPure recombinant Aβ42; experiment: Aβ42 coupled to AminoLink resin, mouse whole brain synaptosome extract, western blot

T1 sequence (P05067 672-713 limits assumed): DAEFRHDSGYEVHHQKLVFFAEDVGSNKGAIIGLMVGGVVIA

- binding result (BioPure recombinant Aβ42 [1]): no binding
B1: Mouse MAP2 (endogenous, from brain synaptosomes) (other, UniProt P20357 1-1828, looked up)
chain: MADERKDEGKAPHWTSASLTEAAAHPHSPEMKDQGGAGEGLSRNANGFPYREEEEGAFGEHRSQGTYSDTKENGINGELTSADRETAEEVSARIVQVVTAEAVAVLKGEQEKEAQHKDQPAALPLAAEETANLPPSPPPSPASEQTATVEEDLLTASKMEFPEQEKFPSSFAEPLDKGEMEFKMPSKPGEDFEHAALVPDTSKTPQDKKDLQGMEGEKLPPVPFAQTFGTNLEDRKQSTEPSIVMPSIGLSAEPPAPKEPKDWFIEMPTESKKDEWGLAAPISPGPLTPMREKDVLEDIPRWEGKQFDSPMPSPFHGGSFTLPLDTMKNERVSEGPRPFAPVFFQSDDKVSLQDPSALATSKESSKDEEPLKDKADKVADVSISEVTTLLGNVHSPVVEGYVGENISGEVKVTTDQEKKETSAPSVQEPTLTETEPQTKLDEKSTVSIEEAVAKKEESFKLRDDKTGVIQTSTEQSFSKEDQKGQEHTIDELKQDSFPISLEQAVTDAAMTSKTLGKVTSEPEAVSERREIQGLFEEKTADKNKLEGAGSATIAEVEMPFYEDKSGMSKYFETSALKEDMTRSTELGSDYYELSDSRGSAQESLDTISPKNQHDEKELQAKASQPSPPAQEAGYSTLAQSYTPDHPSELPEEPSSPQERMFTIDPKVYGEKRDLHSKNKDDLTLSRSLGLGGRSAIEQRSMSINLPMSCLDSIALGFNFGRGHDLSPLASDILTNTSGSMDEGDDYLPPTTPAVEKMPCFPIESKEEEDKAEQAKVTGGQTIQVETSSESPFPAKEYYKNGTVMAPDLPEMLDLAGTRSRLASVSADAEVARRKSVPSEAMLAESSTSLPPVADESPVTVKPDSQLEDMGYCVFNKYTVPLPSPVQDSENLSGESGSFYEGTDDKVRRDLATDLSLIEVKLAAAGRVKDEFTAEKEASPPTSADKSRLSREFDHDRKANDKLDTVLEKSEEHIDSKEHAKESEEMGGKVELFGLGITYDQASTKELITTKDTSPEKTEKGLSSVPEVAEVEPTTKADQGLDFAATKAEPSQLDIKVSDFGQMASGMNVDAGKAIELKFEVAQELTLSSEAPQEADSFMGVESGHIKEGGKVNETEVKEKVTKPDLVHQEAVDKEESYESSGEHESLTMESLKPDEGKKETSPETSLIQDEVALKLSVEIPCPPPVSEADLSTDEKGEVQMEFIQLPKEESTETPDIPAIPSDVTQPQPEAIVSEPAEVPSEEEEIEAGGEYDKLLFRSDTLQISDLLVSESREEFVETCPGELKGVVESVVTIEDDFITVVQTTTDEGESGSHSVRFAAPAQPEEERRPRPHDEELEIEMAAEAQAEPKDGSPDAPATPEKEEVAFSEYKTETYDDYKDETTIDDSIMDADSLWVDTQDDDRSILTEQLETIPKEERAEKDARRPSLEKHRKEKPFKTGRGRISTPERKVAKKEPSTVSRDEVRRKKAVYKKAELAKKSEVQAHSPSRKLILKPAIKYTRPTHLSCVKRKTTAASGDLAQAPGAFKQAKDKVTDGISKSPEKRSSLPRPSSILPPRRGVSGDREENSFSLNSSISSARRTTRSEPIRRAGKSGTSTPTTPGSTAITPGTPPSYSSRTPGTPGTPSYPRTPGTPKSGILVPSEKKVAIIRTPPKSPATPKQLRLINQPLPDLKNVKSKIGSTDNIKYQPKGGQVQIVTKKIDLSHVTSKCGSLKNIRHRPGGGRVKIESVKLDFKEKAQAKVGSLDNAHHVPGGGNVKIDSQKLNFREHAKARVDHGAEIITQSPSRSSVASPRRLSNVSSSGSINLLESPQLATLAEDVTAALAKQGL
notes: Loading control; also called loading control

- binding result (BioPure recombinant Aβ42 [1]): no binding
B2: Mouse synaptogyrin1 (endogenous, from brain synaptosomes) (other, UniProt O55100 1-234, looked up)
chain: MEGGAYGAGKAGGAFDPYTLVRQPHTILRVVSWVFSIVVFGSIVNEGYLNNPEEEEEFCIYNRNPNACSYGVTVGVLAFLTCLLYLALDVYFPQISSVKDRKKAVLSDIGVSAFWAFFWFVGFCFLANQWQVSKPKDNPLNEGTDAARAAIAFSFFSIFTWAGQAVLAFQRYQIGADSALFSQDYMDPSQDSSMPYAPYVEPSAGSDPAGMGGTYQHPANAFDAEPQGYQSQGY
notes: SYP paralog, 22% identity as printed; also called SNG1; synaptogyrinl

- binding result (BioPure recombinant Aβ42 [1]): no binding
B3: Mouse synaptoporin (endogenous, from brain synaptosomes) (other, UniProt Q8BGN8 1-265, looked up)
chain: MCMVIFAPLFAMFAFATCGGYSGGLRLSVDCVNKTESNLSIDIAFAYPFRLQQVTFEVPTCEGKEQQKLALVGDSSSSAEFFVTVAVFAFLYSLAATVVYIFFQNKYRENNRGPLIDFIVTVVFSFLWLVGSSAWAKGLSDVKVATDPKEVLLLMSACKQPSNKCMAVHSPVMSSLNTSVVFGFLNFILWAGNIWFVFKETGWHSSGQRYLSDPMEKHSSSYNQGRYNQESYGSSGGYSQQANLGPTSDEFGQQPSGPTSFNNQI
notes: SYP paralog, 62% identity as printed; also called SYNPR

- binding result (BioPure recombinant Aβ42 [2]): binds
B4: Mouse synaptophysin (endogenous, from brain synaptosomes or cultured neurons) (other, UniProt Q62277 1-314, looked up)
chain: MLLLADMDVVNQLVAGGQFRVVKEPLGFVKVLQWVFAIFAFATCGSYTGELRLSVECANKTESALNIEVEFEYPFRLHQVYFDAPSCVKGGTTKIFLVGDYSSSAEFFVTVAVFAFLYSMGALATYIFLQNKYRENNKGPMMDFLATAVFAFMWLVSSSAWAKGLSDVKMATDPENIIKEMPMCRQTGNTCKELRDPVTSGLNTSVVFGFLNLVLWVGNLWFVFKETGWAAPFMRAPPGAPEKQPAPGDAYGDAGYGQGPGGYGPQDSYGPQGGYQPDYGQPASGGGGGYGPQGDYGQQGYGQQGAPTSFSNQM
notes: Endogenous protein detected by western blot; also called SYP; Syp
